In one data set the target is p53 DNA binding domain (Homo sapiens, UniProt P04637 P04637:102-292). The data set can be described thus: SPB-AAD, SPB-PEG4-AAD or SPB-Spermidine-AD + UV365 photocrosslinking, SDS-PAGE. Particulars: chain copies: 4 stated; label: 5'-Cy5.
In data set [1] the target is T1, NFAT1 DNA binding domain (Homo sapiens, UniProt Q13469 Q13469:399-676).
T1 sequence: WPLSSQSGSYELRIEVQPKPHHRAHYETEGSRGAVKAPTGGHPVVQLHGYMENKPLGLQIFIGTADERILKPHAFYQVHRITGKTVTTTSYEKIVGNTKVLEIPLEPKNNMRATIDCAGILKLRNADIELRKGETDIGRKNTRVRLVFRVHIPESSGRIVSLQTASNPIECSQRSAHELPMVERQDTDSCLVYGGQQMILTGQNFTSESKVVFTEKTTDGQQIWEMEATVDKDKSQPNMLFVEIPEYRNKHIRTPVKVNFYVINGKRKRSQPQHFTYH
The data set can be described thus: SPB-AAD 100 uM + UV365 photocrosslinking, SDS-PAGE. As to the method:
The UV illumination (as indicated by a positive sign) was carried out using a LED Chip (21.4 mm×21.4 mm, 365-370 nm, 30 Watt, sample distance 2 cm, exposure time 2-15 min at 4 degree C., here the exposure time is 15 min). Half of the binding reaction (7.5 μl) was run on a 10% PAGE 0.5×TBE gel and visualized by Cy5 fluorescence on DNA. The small amount of single stranded DNA is due to incomplete annealing. The higher smearing bands are most likely non-specific protein complexes. Neither of these experimental imperfections affected the main conclusion of this experiment because the double stranded-DNA bands and the specific NFAT-DNA complex bands (the middle sharp bands) are well defined and can be monitored without the interference of the other bands.
(§1) FIG. 12D depicts the other half of binding reaction from the above experiments (FIG. 12C) were added SDS loading dye (2% SDS), boil for 10 min, and run on SDS gel (4-15% gradient gel). The gel was visualized by Cy5 fluorescence for DNA.
FIG. 12E depicts further characterization of BFPX crosslinking of NFAT1/DNA complexes using different DNA substrates and staining techniques. […] The reactions were then analyzed by SDS PAGE under denaturing condition as described in FIG. 12D. […]

The target of data set [2] is Nkx2.5 DNA binding domain (homeodomain) (Homo sapiens, UniProt P52952 P52952:138-197). Nature of the data set: SPB-AAD, SPB-PEG4-AAD or SPB-Spermidine-AD + UV365 photocrosslinking, SDS-PAGE; none with formaldehyde or UV alone. The settings on record: label: 5'6-FAM.
Data set [3] concerns the target T2, MEF2A DNA binding domain (Homo sapiens, UniProt Q02078 Q02078:2-95). The data set can be described thus: 4AMT-SDAD + UV365 photocrosslinking, reversed by TCEP. Particulars: chain copies: 2; label: 5'6-FAM.
Data set [4] has as its target T2, MEF2A DNA binding domain. The data set can be described thus: SPB-AAD 100 uM + UV365 photocrosslinking, SDS-PAGE; no crosslink without probe. The settings on record: chain copies: 2; label: 5'6-FAM.
The target of data set [5] is T1, NFAT1 DNA binding domain. Nature of the data set: EMSA; 20 mM Hepes pH 7.6, 150 mM NaCl, 1 mM DTT, 12% glycerol, RT; formaldehyde diminished binding, BFPX probes did not; also photocrosslinked. Particulars: label: 5'-Cy5 (or 5'6-FAM). As to the method: FIG. 12C depicts Native EMSA assay of the effect of Formaldehyde (FA), BFPX probe (SPB-AAD, SPB-PEG4-AAD, and SPB-Spermidine-AD) at various concentrations, and UVA (365 nm) on the DNA binding by NFAT1. The binding reactions were performed in a buffer of 20 mM Hepes pH 7.6, 150 mM NaCl, 1 mM DTT, 12% glycerol. Typically protein and DNA are mixed to bind at room temperature for 30 min, followed by addition of BFPX probes for an additional 15 min and then UV illumination. In the case of FA treatment, the reaction time is 10 min at room temperature and then quenched by 250 mM glycine. […] Half of the binding reaction (7.5 μl) was run on a 10% PAGE 0.5×TBE gel and visualized by Cy5 fluorescence on DNA. […] Neither of these experimental imperfections affected the main conclusion of this experiment because the double stranded-DNA bands and the specific NFAT-DNA complex bands (the middle sharp bands) are well defined and can be monitored without the interference of the other bands.
as §1
In general terms: Mobility shift assays separate free from complexed probe on a gel.

T2 sequence (Q02078 2-95, one chain of several): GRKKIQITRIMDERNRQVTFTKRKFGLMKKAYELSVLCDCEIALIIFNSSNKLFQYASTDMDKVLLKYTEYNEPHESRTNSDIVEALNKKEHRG
Sequence of Nkx2.5 DNA binding domain (homeodomain) (P52952 138-197, one chain of several): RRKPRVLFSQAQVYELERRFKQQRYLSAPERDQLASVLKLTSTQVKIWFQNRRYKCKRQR
Sequence of p53 DNA binding domain (P04637 102-292, one chain of several): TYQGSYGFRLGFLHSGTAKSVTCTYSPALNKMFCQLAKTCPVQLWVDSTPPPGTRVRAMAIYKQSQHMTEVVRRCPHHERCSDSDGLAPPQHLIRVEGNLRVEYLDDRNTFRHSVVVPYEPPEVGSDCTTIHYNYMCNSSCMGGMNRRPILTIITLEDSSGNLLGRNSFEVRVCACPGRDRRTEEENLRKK

B1: p53 tetramer site 37-mer (dsDNA)
DNA 1: GCTAGCGTAGCAGGCATGCCTAGGCATGCCTGCTACG
DNA 2: CGTAGCAGGCATGCCTAGGCATGCCTGCTACGCTAGC
On to B1, for which the binding result in the data set with p53 DNA binding domain was “binds”.

B2: c2 NFAT 16-mer (dsDNA)
DNA 1: GTAGAGGAATTTCCTA
DNA 2: TAGGAAATTCCTCTAC
Consider B2, for which the binding result with NFAT1 DNA binding domain [1] was “binds”.

B3: Nkx2.5 site 19-mer (dsDNA)
DNA 1: ACTATTTTAAGAACGTGCT
DNA 2: AGCACGTTCTTAAAATAGT
Consider B3, for which, in data set [2], the binding result was “binds”.

B4: c1 NFAT 21-mer (dsDNA)
DNA 1: TTCCACAGAGGAAAATTTGTT
DNA 2: AACAAATTTTCCTCTGTGGAA
Consider B4, for which the binding result with NFAT1 DNA binding domain [1] is listed as “binds”.

B5: MEF2 site 16-mer (only the core site printed) (dsDNA)
DNA 1: CTATAAATAG
DNA 2: CTATTTATAG
On to B5, for which the binding result with MEF2A DNA binding domain [3] is listed as “binds”.

B6: MEF2 consensus site DNA (44-mer; only the core site printed) (dsDNA)
DNA 1: CTATAAATAG
DNA 2: CTATTTATAG
In the case of B6, the binding result with MEF2A DNA binding domain [4] is “binds”.

B7: ARRE2 27-mer (dsDNA)
DNA 1: CCATAGAGGAAAATTTGTTTCATACAG
DNA 2: CTGTATGAAACAAATTTTCCTCTATGG
B7: the binding result with NFAT1 DNA binding domain [5] is “binds”.

The values are drawn from patent publication US20250388597A1, “BIFUNCTIONAL PHOTOCROSSLINKING PROBES FOR COVALENT CAPTURE OF PROTEIN-NUCLEIC ACID COMPLEXES IN CELLS” (UNIVERSITY OF SOUTHERN CALIFORNIA, priority 2022, published 2025).
